In general, stoichiometry N refers to the number of molecules, sites or subunits per partner or assembly.

Experimental findings from article PMC5595370 are described below.

Assay [1] has as its target HPV59 L1 C175S mutant after limited trypsin digestion (crystallized pentamer) (human papillomavirus type 59). As to the kind of experiment: AUC.
Assay [2] has the same target. As to the kind of experiment: crystal structure.

On to “HPV59 L1 C175S mutant after limited trypsin digestion (crystallized pentamer) (domain or fragment)”, for which the stoichiometry N in assay [1] and in assay [2] was 5 each time.
